Reference: PMC7706699

The substances below were run against hFip1 (residues 137–243) S159C/C189S/C216S mutant, FAM-labeled (human) (UniProt Q6UN15) (assay: fluorescence polarisation).

Row | Substance | Kd [nM]
1 | human CPSF30 (residues 62–244) Y127A mutant (from UniProt O95639-2 62-244) (domain or fragment) | 22
2 | human CPSF30 (residues 62–244) Y151A mutant (from UniProt O95639-2 62-244) (domain or fragment) | 5.4
3 | human CPSF30 ZF2–C terminus (residues 62–244), wild type (from UniProt O95639-2 62-244) (domain or fragment) | 11.4
